B1: PI3KC2α^ΔN+ΔPX−C2 WT (mouse PI3KC2α amino acids 377–1,400) [mouse] / GST-distal C2 (PI3KC2α amino acids 1,561–1,686) [mouse] (parent complex)
chain 1: VQNDEVAAFCQSIMKLKTKFPYTDHCTNPGYLLSPVTVQRNMCGENASVKVSIEIEGLQLPVTFTCDVSSTVEIIIMQALCWVHDDLNQVDVGSYILKVCGQEEVLQNNHCLGSHEHIQNCRKWDTEIKLQLLTLSAMCQNLARTAEDDEAPVDLNKYLYQIEKPYKEVMTRHPVEELLDSYHYQVELALQTENQHRAVDQVIKAVRKICSALDGVETPSVTEAVKKLKRAVNLPRNKSADVTSLSGSDTRKNSTKGSLNPENPVQVSMDHLTTAIYDLLRLHANSSRCSTACPRGSRNIKEAWTATEQLQFTVYAAHGISSNWVSNYEKYYLICSLSHNGKDLFKPIQSKKVGTYKNFFYLIKWDELIIFPIQISQLPLESVLHLTLFGVLNQSSGSSPDSNKQRKGPEALGKVSLTLFDFKRFLTCGTKLLYLWTSSHTNSIPGAIPKKSYVMERIVLQVDFPSPAFDIIYTSPQIDRNIIQQDKLETLESDIKGKLLDIIHRDSSFGLSKEDKVFLWENRYYCLKHPNCLPKILASAPNWKWANLAKTYSLLHQWPPLCPLAALELLDAKFADQEVRSLAVSWMEAISDDELADLLPQFVQALKYEIYLNSSLVRFLLSRALGNIQIAHSLYWLLKDALHDTHFGSRYEHVLGALLSVGGKGLREELSKQMKLVQLLGGVAEKVRQASGSTRQVVLQKSMERVQSFFLRNKCRLPLKPSLVAKELNIKSCSFFSSNAMPLKVTMVNADPLGEEINVMFKVGEDLRQDMLALQMIKIMDKIWLKEGLDLRMVIFRCLSTGRDRGMVELVPASDTLRKIQVEYGVTGSFKDKPLAEWLRKYNPSEEEYEKASENFIYSCAGCCVATYVLGICDRHNDNIMLRSTGHMFHIDFGKFLGHAQMFGSFKRDRAPFVLTSDMAYVINGGEKPTIRFQLFVDLCCQAYNLIRKQTNLFLNLLSLMIPSGLPELTSIQDLKYVRDALQPQTTDAEATIFFTRLIESSLGSIATKFNFFIHNLAQLRFSG
chain 2: GAVKLSVSYRNGTLFIMVMHIKDLVTEDGADPNPYVKTYLLPDTHKTSKRKTKISRKTRNPTFNEMLVYSGYSKETLRQRELQLSVLSAESLRENFFLGGITLPLKDFNLSKETVKWYQLTAATYL

The variants in this assay derive from B1. The assay is described as follows: GST pull-down, SDS-PAGE with Coomassie Blue staining, quantified with ImageJ; n = 3; binding of WT set to 100%; parent: 100; read off a plot.
chain 1 K50A, chain 1 W82A, chain 1 D85A, chain 1 D86A: the percent of parent is ~42%.

The values are drawn from PMC8930771, “Structural basis of phosphatidylinositol 3-kinase C2α function” (Nature Structural & Molecular Biology, 2022).
